B1: Pleckstrin homology domain-containing family M member 1 (Homo sapiens), Q9Y4G2 (parent)
chain: MLSVVENGLDPQAAIPVIKKKLVGSVKALQKQYVSLDTVVTSEDGDANTMCSALEAVFIHGLHAKHIRAEAGGKRKKSAHQKPLPQPVFWPLLKAVTHKHIISELEHLTFVNTDVGRCRAWLRLALNDGLMECYLKLLLQEQARLHEYYQPTALLRDAEEGEFLLSFLQGLTSLSFELSYKSAILNEWTLTPLALSGLCPLSELDPLSTSGAELQRKESLDSISHSSGSEDIEVHHSGHKIRRNQKLTASSLSLDTASSSQLSCSLNSDSCLLQENGSKSPDHCEEPMSCDSDLGTANAEDSDRSLQEVLLEFSKAQVNSVPTNGLSQETEIPTPQASLSLHGLNTSTYLHCEAPAEPLPAQAASGTQDGVHVQEPRPQAPSPLDLQQPVESTSGQQPSSTVSETAREVGQGNGLQKAQAHDGAGLKLVVSSPTSPKNKSWISEDDFYRPSREQPLESASDHPIASYRGTPGSRPGLHRHFSQEPRKNCSLGALDQACVPSPGRRQAQAAPSQGHKSFRVVHRRQMGLSNPFRGLMKLGTVERRGAMGIWKELFCELSPLEFRLYLSNEEHTCVENCSLLRCESVGPAHSDGRFELVFSGKKLALRASSQDEAEDWLDRVREALQKVRPQQEDEWVNVQYPDQPEEPPEAPQGCLSPSDLLSEPAALQGTQFDWSSAQVPEPDAIKESLLYLYMDRTWMPYIFSLSLEALKCFRIRNNEKMLSDSHGVETIRDILPDTSLGGPSFFKIITAKAVLKLQAGNAEEAALWRDLVRKVLASYLETAEEAVTLGGSLDENCQEVLKFATRENGFLLQYLVAIPMEKGLDSQGCFCAGCSRQIGFSFVRPKLCAFSGLYYCDICHQDDASVIPARIIHNWDLTKRPICRQALKFLTQIRAQPLINLQMVNASLYEHVERMHLIGRRREQLKLLGDYLGLCRSGALKELSKRLNHRNYLLESPHRFSVADLQQIADGVYEGFLKALIEFASQHVYHCDLCTQRGFICQICQHHDIIFPFEFDTTVRCAECKTVFHQSCQAVVKKGCPRCARRRKYQEQNIFA
B2: ADP-ribosylation factor-like protein 8B (Homo sapiens), Q9NVJ2 (parent)
chain: MLALISRLLDWFRSLFWKEEMELTLVGLQYSGKTTFVNVIASGQFSEDMIPTVGFNMRKVTKGNVTIKIWDIGGQPRFRSMWERYCRGVNAIVYMIDAADREKIEASRNELHNLLDKPQLQGIPVLVLGNKRDLPNALDEKQLIEKMNLSAIQDREICCYSISCKEKDNIDITLQWLIQHSKSRRS

The variants in assay [1] derive from B1. As to conditions: with arl8b_human ARL8B.
Variants of B1 are the subject of assay [2]. As to conditions: with rab7a_human RAB7A.
The variants in assay [3] derive from B1. As to conditions: with arl8b_human ARL8B. This is another data set of the same source.
In assay [4] the parent is B1. As to conditions: with mlp3b_human MAP1LC3B.
Assay [5] covers variants of B1. As to conditions: with mlp3b_rat Map1lc3b.
The variants in assay [6] derive from B2. As to conditions: with pkhm1_human PLEKHM1, Q9Y4G2.

As for H60A;R117A;R119A, the “effect of a mutation on the interaction” value is on record as “disrupting interaction strength” in assay [1]; “with no effect” in assay [2]; “decreasing interaction strength” in assay [3]; “disrupting interaction strength” in assay [4]; “disrupting interaction strength” in assay [5].
In the case of H60A, the results for the “effect of a mutation on the interaction” value in assay [1], in assay [2] and in assay [3] were “disrupting interaction strength”, “with no effect” and “decreasing interaction strength”, respectively.
The corresponding values for H63A are “disrupting interaction strength”, “with no effect” and “with no effect”.
The corresponding values for R117A;R119A are “disrupting interaction strength”, “with no effect” and “decreasing interaction strength”.
R123A: the “effect of a mutation on the interaction” value is “disrupting interaction strength” in assay [1] and “with no effect” in assay [2].
For MLALISRLLDWFRSLFWKEEMELTLVGLQYSGKTTFVNVIASGQFSEDMIPTVGFNMRKVTKGNVTIKIWDIGGLPRFRSMWERYCRGVNAIVYMIDAADREKIEASRNELHNLLDKPQLQGIPVLVLGNKRDLPNALDEKQLIEKMNLSAIQDREICCYSISCKEKDNIDITLQWLIQHSKSRRS, in assay [6], the “effect of a mutation on the interaction” value was “with no effect”.
As to T34N, the “effect of a mutation on the interaction” value in assay [6] is recorded as “disrupting interaction strength”.
